Test results taken from patent publication US20240343803A1 (SHANDONG SIMCERE BIOPHARMACEUTICAL, published 2024).

How the values were obtained:
[1] = molecular target: T1, cynomolgus monkey PVRIG (Novoprotein, Cat NO. C09B) (cynomolgus monkey, UniProt A0A2K5WVV8 41-171); assay: ELISA, coated cynomolgus monkey PVRIG
T1 construct: bought reagent; also called cynomolgus monkey PVRIG recombinant protein
T1 sequence: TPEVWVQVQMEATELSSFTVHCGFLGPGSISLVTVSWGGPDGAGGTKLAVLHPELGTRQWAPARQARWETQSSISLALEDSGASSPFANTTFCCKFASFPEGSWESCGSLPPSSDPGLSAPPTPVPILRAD

[2] = molecular target: T2, full-length human TIGIT on CHO-K1 cells (CHO-K1 human TIGIT) (human, UniProt Q495A1 22-244); assay: FACS, CHO-K1 human TIGIT high expression strain
T2 construct: NCBI XP_024309156.1; entry includes the signal peptide; also called high expression strain 1D2; medium expression strain 2D10
T2 sequence: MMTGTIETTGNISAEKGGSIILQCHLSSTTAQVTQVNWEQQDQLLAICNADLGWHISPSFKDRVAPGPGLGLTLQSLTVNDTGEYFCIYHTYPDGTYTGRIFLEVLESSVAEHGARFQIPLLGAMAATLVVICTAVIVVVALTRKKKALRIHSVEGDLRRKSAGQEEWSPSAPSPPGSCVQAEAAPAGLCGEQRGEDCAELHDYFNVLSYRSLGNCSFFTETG
Method: The collected cells were washed once with PBS (Hyclone, Cat NO. SH30256), resuspended to 2×10⁵/50 μL with 1% BSA-PBS. The antibodies were diluted to 80 nM with 1% BSA-PBS (diluted by 3-fold serial dilution for 12 concentration points). The 50 μL cells were then mixed with 50 μL diluted antibodies, and then incubated at 4° C. for 60 minutes. […] After washing twice with PBS, the cell samples were resuspended with 1% BSA-PBS, 100 μL/well and then analyzed by flow cytometry (BD, Canto II).

[3] = molecular target: T3, human TIGIT ECD-mFc (fusion protein of extracellular domain of human TIGIT and mouse IgG2a Fc fragment) (human); assay: ELISA
T3 chain: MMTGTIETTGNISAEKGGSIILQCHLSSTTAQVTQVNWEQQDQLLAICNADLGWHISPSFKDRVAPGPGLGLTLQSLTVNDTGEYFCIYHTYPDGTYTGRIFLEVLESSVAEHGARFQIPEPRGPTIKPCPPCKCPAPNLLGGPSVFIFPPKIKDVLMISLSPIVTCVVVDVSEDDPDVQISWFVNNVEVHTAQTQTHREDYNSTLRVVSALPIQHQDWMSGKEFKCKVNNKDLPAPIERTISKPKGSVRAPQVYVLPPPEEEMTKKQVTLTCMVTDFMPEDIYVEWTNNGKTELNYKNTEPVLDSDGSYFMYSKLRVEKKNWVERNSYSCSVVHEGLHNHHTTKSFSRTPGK
Method: (§1) After discarding the coating solution, the plate was added with 5% skim milk powder (Sangon Biotech, CAT #A600669-0250)-PBS, 250 μL/well, and incubated at 37° C. for 2-4 hours. […] The enzyme-labeled plate was then washed with 0.05% Tween 20-PBS for 3 times on the Microplate Washer, added with tested antibodies diluted to 13 nM with 1% BSA (diluted by 3-fold serial dilution for 12 concentration points), 50 μL/well, and incubated at 37° C. for 1.5-2 hours. The plate was washed with 0.05% Tween 20-PBS for 3 times on the Microplate Washer, then added with HRP enzyme-labeled antibodies (Merck, CAT #AP113P) diluted with 1% BSA (Sangon Biotech, CAT #A500023-0100)-PBS at a dilution ratio of 1:5000, 50 μL/well, and incubated at 37° C. for 1 hour. After washing 3 times with 0.05% Tween 20-PBS on the Microplate Washer, the plate was added with TMB chromogenic solution (KPL, CAT #52-00-03), 50 μL/well, and incubated at room temperature for 7-10 minutes. 1M HCL, 50 μL/well, was then added into the plate to terminate the reaction, and the OD450 nm was read by a microplate reader (Biotek, Powerwave HT). […] (b) The binding activity of anti-TIGIT chimeric antibodies to CHO-K1 human TIGIT (cells with high, medium and low expression levels) and CHO-KI cynomolgus monkey TIGIT detected by FACS.

[4] = molecular target: T4, cynomolgus monkey TIGIT ECD-mFc (extracellular domain of cynomolgus monkey TIGIT and mouse IgG2a Fc fragment) (cynomolgus monkey); assay: ELISA
T4 construct: entry includes the signal peptide, limits not readable here
Method: as §1

[5] = molecular target: T5, Fusion protein of extracellular domain of human TIGIT and His-tag (human TIGIT ECD-his) (human); assay: BIAcore; KD ratio to TIGIT-CHI-006
T5 chain: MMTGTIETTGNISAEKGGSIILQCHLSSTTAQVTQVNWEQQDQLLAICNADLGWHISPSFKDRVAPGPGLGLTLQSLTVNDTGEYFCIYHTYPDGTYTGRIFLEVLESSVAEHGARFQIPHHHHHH

B1: SRF813-hIgG1 (antibody, V domains shown)
VH: QVQLVQSGAEVKKPGSSVKVSCKASGGTFSSAAISWVRQAPGQGLEWMGNIIPIVGIANYAQKFQGRVTITADESTSTAYMELSSLRSEDTAVYYCARDTGRGYTRHFWFDPWGQGTLVTVSS
VL: DIQMTQSPSSLSASVGDRVTITCRASQSISSYLNWYQQKPGKAPKLLIYAASSLQSGVPSRFSGSGSGTDFTLTISSLQPEDFATYYCQQSDILYTFGGGTKVEIK
notes: human IgG1 format by its name
[1]
  EC50 (read off the curve): ~0.06 nM

B2: RG6058-hIgG1 (antibody, V domains shown)
VH: EVQLQQSGPGLVKPSQTLSLTCAISGDSVSSNSAAWNWIRQSPSRGLEWLGKTYYRFKWYSDYAVSVKGRITINPDTSKNQFSLQLNSVTPEDTAVFYCTRESTTYDLLAGPFDYWGQGTLVTVSS
VL: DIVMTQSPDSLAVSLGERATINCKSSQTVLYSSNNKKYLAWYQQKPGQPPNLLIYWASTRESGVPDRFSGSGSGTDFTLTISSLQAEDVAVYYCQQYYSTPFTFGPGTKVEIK
notes: human IgG1 format by its name; also called Roche RG6058; control antibody RG6058
[2]
  EC50 (read off the curve): ~0.6 nM
[3]
  EC50: 0.0151 nM
[4]
  EC50: 0.0158 nM

B3: TIGIT-006-H5L3 (antibody, V domains shown)
VH: EVQLQESGPGLVKPSETLSLTCAVSGYSMTSDYWNWIRQPPGKKLEYIGYISYSGRTYYNPSLKSRVTISRDTSKNQFSLKLSSVTAADTAVYYCARGDYSNYGGAMYDWGQGTTVTVSS
VL: DIVMTQSPDSLAVSLGERATINCRASQGVSTTIAWYQQKPGQSPKLLIYSASYRYTGVPRFSGSGSGTDFTLTISSLQAEDVAVYYCQQYYSSPFTFGGGTKVEIK
notes: Humanized anti-TIGIT antibody
[5]
  Fold change vs chimeric antibodies (KD): 0.83 fold
